According to patent US20250295111A1, “ANTIMICROBIAL PEPTIDES OF ACTI[…] METHODS OF USE THEREOF” (THE REGENTS OF THE UNIVERSITY OF CALIFORNIA, priority 2023, published 2025):

System: Saccharomyces cerevisiae
Assay: Antimicrobial peptide inhibition assay (filter paper disk on YPD agar plate, zone of inhibition)
Format: cell-based
Conditions: protein extract from recombinant E. coli BL21 (DE3) overexpressing the AMP, 6-mm filter paper disk on YPD agar plate, 30° C. for 24 h
Protocol: A 102 amino acid AMP candidate from Streptosporangium becharense DSM 46887 (GenBank ID: MBB5817359.1) with a predicted molecular weight of 11.2 kDa, pI of 8.67 and charge of 3.5, was cloned in E. coli for functional validation. The sequence was codon optimized and sent to Twist Biosciences (San Francisco, CA) for synthesis and cloned into a pET-21 (+) expression vector. The plasmid DNA (pET-21 (+)_AMP_S.be) was then transferred into E. coli BL21 (DE3) strain with […] carbenicillin (MilliporeSigma, Burlington, MA) selection. To overexpress the short peptide, 100 mL of E. coli BL21 (DE3) harboring the recombinant plasmid was cultured in Luria-Bertani broth containing […] of carbenicillin at 37° C. until the mid-exponential phase. The overexpression was induced by addition of 0.1 mM isopropyl-b-D-thiogalactopyranoside (MilliporeSigma, Burlington, MA) at 25° C. and 120 rpm for 16 h. […]
Yeast Saccharomyces cerevisiae was used for the antimicrobial activity assessment with proteins extracted from the recombinant E. coli. […] After incubation at 30° C. for 24 h, the antimicrobial activity of the short peptide was determined by appearance of the zone of inhibition. To confirm the overexpression of the short peptide, the protein extract was analyzed using SDS-PAGE gel (12% Mini-PROTEAN_TGXTM Precast Gel, Bio-Rad Laboratories, Hercules, CA). […]

B1: AMP candidate from Streptosporangium becharense DSM 46887: 102 amino acid AMP candidate with signal peptide from Streptosporangium becharense DSM 46887, overexpressed in E. coli (protein)
chain: MKRIFLVPALTAGIFALTTGAAYASQYIAYEGPGFTGRSVLIDACGPSNIPYHGSYKWYGDGQSGRMYNQPNAHGVMHFRLPSNNNAEQRTPVGWQSIFIEC
modifications: Streptosporangium becharense
notes: 102 amino acid AMP candidate with signal peptide from Streptosporangium becharense DSM 46887, overexpressed in E. coli
Question: B1 was tested. Which “antimicrobial activity determined by appearance of the zone of inhibition” value did it give?
Answer: Inhibition of Saccharomyces cerevisiae is demonstrated

Question: And the “antimicrobial activity determined by appearance of the zone of inhibition” value (listed as AMP candidate of Streptosporangium becharense DSM 46887)?
Answer: Inhibition of Saccharomyces cerevisiae
